Results published in article PMC7530888 (Nucleic Acids Research, 2020).
Several values for one entry are separate records, joined by “and”; a condition that tells them apart may be missing. Identical values can stand only once.

Assay: Small angle X-ray scattering
Type: physicochemical, M. tuberculosis
Conditions: for Rg [from Guinier] / Rg [from P(r)]: BM29 ESRF, 10°C; for Rg [from Guinier]: 50 mM Tris pH 8.0, 200 mM NaCl, 2 mM βME; for Rg [from P(r)]: pH 8.0

| Substance | Rg [from Guinier] [nm] | Rg [from P(r)] | Rg in presence of nicked DNA (presence of nicked DNA substrate (S1), from P(r)) [nm] |
| --- | --- | --- | --- |
| MtbLigA+Nicked DNA: MtbLigA in complex with 27-mer nicked DNA (S1) | 4.49±0.07 | 4.49±0.06 nm |  |
| MtbLigA: M. tuberculosis NAD^+-dependent DNA ligase A, full-length | 5.22±0.08 | 5.20 nm and 5.20±0.06 nm | 4.49 |
